Assays:
[1] = molecular target: T1, ckCDH19(1-43)::FLAG::ckCDH19(44-468)::huCDH19(464-772) (construct O, Hu EC5) (human/chicken chimera); test: flow cytometry, transfected 293T cells, 2 mM CaCl2;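 note: binding of Alexa647-labelled anti-CDH19 antibodies to cells expressing human/chicken CDH19 chimeras, read as cell-bound fluorescence, with mock-transfected cells as controls, n.d. meaning not determined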
T1 construct: leader (1-43 of the entry) left out
T1 chain: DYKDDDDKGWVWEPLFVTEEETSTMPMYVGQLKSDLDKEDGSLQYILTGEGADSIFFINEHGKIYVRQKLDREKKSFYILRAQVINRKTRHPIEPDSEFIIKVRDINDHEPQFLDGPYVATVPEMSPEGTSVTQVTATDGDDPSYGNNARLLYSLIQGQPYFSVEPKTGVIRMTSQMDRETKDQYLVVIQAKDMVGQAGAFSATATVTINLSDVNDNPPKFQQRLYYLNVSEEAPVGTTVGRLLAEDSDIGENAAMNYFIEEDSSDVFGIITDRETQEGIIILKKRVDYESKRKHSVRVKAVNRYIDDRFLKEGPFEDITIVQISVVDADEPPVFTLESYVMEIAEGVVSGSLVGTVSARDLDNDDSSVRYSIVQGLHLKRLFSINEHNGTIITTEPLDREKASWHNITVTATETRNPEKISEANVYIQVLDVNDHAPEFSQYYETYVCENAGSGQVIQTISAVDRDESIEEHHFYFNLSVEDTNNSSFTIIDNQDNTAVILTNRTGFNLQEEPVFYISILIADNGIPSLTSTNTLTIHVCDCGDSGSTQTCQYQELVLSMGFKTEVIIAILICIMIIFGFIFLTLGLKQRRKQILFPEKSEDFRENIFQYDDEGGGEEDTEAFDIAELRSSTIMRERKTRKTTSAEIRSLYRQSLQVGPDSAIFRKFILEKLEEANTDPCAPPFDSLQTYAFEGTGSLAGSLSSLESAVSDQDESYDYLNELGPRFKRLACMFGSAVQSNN
Experimental: (§1) The experiment included assaying a subset of anti-CDH19 antibodies against chicken Cadherin19 to determine suitability for binning on these human/chicken chimeras.
(§2) The following binding assay was completed in presence of 2 mM CaCl₂). […] Cells were then washed one time and the amount of cell associated Alexa647-labelled Ab was quantitated by flow cytometry. The experiments included mock transfected controls.

[2] = molecular target: T2, huCDH19(1-43)::FLAG::hu(44-141)::ckCDH19(142-776) (construct K, Hu EC1) (human/chicken chimera); test: flow cytometry, transfected 293T cells, 2 mM CaCl2;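 note: binding of Alexa647-labelled anti-CDH19 antibodies to cells expressing human/chicken CDH19 chimeras, read as cell-bound fluorescence, with mock-transfected cells as controls, n.d. meaning not determined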
T2 construct: leader (1-43 of the entry) left out; also called huCDH19(44-141)::ckCDH19(142-776)
Experimental: as §1, §2

[3] = molecular target: T3, ckCDH19(1-43)::FLAG::ckCDH19(44-141)::huCDH19(142-249)::ckCDH19(250-776) (construct L, Hu EC2) (human/chicken chimera); test: flow cytometry, transfected 293T cells, 2 mM CaCl2;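 note: binding of Alexa647-labelled anti-CDH19 antibodies to cells expressing human/chicken CDH19 chimeras, read as cell-bound fluorescence, with mock-transfected cells as controls, n.d. meaning not determined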
T3 construct: leader (1-43 of the entry) left out
T3 chain: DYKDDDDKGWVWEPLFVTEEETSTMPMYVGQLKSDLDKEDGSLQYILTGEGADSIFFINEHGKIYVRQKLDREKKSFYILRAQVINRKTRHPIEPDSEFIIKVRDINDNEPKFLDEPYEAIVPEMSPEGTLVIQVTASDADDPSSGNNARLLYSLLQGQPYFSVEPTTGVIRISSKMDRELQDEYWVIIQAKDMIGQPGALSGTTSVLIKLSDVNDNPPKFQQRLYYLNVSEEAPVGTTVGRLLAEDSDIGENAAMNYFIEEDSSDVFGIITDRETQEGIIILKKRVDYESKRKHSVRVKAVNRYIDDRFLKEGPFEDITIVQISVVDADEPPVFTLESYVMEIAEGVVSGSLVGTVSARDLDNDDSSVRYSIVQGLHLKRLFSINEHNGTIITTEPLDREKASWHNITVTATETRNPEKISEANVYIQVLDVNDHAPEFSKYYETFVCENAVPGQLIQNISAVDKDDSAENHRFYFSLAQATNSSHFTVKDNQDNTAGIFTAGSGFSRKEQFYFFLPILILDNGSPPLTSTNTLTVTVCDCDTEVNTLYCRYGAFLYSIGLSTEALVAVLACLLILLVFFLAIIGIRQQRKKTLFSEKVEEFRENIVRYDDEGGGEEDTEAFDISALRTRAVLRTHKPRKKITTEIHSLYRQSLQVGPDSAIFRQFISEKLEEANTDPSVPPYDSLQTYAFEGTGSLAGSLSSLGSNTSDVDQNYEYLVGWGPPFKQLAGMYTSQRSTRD
Experimental: as §1, §2

[4] = molecular target: T4, ckCDH19(1-43)::FLAG::ckCDH19(44-776) (construct J, Ck EC1-5) (chicken); test: flow cytometry, transfected 293T cells, 2 mM CaCl2;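 note: binding of Alexa647-labelled anti-CDH19 antibodies to cells expressing human/chicken CDH19 chimeras, read as cell-bound fluorescence, with mock-transfected cells as controls, n.d. meaning not determined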
T4 construct: the entry holds leader (1-43), FLAG and ckCDH19(44-776); leader left out; also called chicken Cadherin19
T4 chain: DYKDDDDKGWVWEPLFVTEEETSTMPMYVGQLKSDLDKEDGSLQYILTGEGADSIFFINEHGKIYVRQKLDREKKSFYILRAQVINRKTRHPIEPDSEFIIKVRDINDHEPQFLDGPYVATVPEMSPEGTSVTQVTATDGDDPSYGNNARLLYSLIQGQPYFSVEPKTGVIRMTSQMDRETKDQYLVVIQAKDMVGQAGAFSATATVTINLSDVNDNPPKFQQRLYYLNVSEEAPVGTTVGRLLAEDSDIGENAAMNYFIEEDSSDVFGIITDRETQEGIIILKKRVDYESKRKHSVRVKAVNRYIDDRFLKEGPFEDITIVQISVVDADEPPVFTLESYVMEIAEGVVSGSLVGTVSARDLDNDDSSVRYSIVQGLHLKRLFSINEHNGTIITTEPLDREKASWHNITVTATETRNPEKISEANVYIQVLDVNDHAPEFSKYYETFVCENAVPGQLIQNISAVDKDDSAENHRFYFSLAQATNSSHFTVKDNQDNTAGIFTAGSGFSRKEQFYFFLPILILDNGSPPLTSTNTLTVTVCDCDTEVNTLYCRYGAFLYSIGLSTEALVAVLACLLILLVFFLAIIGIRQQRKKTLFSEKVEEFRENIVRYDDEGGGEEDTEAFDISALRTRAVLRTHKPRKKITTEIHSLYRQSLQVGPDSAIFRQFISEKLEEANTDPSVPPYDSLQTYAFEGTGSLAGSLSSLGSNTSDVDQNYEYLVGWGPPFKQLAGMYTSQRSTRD
Experimental: as §1, §2

[5] = molecular target: T5, muCDH19(44-770) with Flag tag (construct I, Mu EC1-5) (mouse); test: flow cytometry, transfected 293T cells, 2 mM CaCl2
T5 construct: leader left out; the entry starts at residue 44; also called Mo EC1-5; mouse Cadherin19
T5 chain: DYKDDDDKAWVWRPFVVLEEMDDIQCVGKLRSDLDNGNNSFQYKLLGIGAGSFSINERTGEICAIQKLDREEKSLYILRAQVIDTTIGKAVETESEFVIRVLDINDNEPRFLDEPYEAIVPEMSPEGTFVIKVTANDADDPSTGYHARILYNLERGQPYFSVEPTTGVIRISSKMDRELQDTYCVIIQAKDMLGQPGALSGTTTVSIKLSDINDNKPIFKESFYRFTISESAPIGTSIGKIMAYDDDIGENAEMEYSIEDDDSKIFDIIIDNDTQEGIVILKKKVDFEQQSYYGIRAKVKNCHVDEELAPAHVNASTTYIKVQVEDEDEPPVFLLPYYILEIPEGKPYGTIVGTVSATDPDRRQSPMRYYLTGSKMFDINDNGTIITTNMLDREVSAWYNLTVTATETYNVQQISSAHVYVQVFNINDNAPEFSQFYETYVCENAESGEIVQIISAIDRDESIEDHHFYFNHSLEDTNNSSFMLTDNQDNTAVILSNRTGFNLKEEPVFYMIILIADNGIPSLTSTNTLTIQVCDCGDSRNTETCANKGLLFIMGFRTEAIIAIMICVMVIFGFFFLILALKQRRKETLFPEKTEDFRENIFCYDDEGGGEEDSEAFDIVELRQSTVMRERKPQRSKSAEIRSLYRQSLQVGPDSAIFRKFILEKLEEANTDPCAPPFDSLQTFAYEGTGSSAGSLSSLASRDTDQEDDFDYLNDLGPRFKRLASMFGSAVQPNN
Experimental: as §2

[6] = molecular target: T6, muCDH19(44-139)::huCDH19(142-364)::muCDH19(363-770) with Flag tag (construct E, Hu EC2-3) (human/mouse chimera); test: flow cytometry, transfected 293T cells
T6 construct: leader left out; the entry starts at residue 44; also called C137847
Text: (§3) The experiment included assaying the anti-CDH19 antibodies against mouse Cadherin19 to determine suitability for binning on these human/mouse chimeras.

[7] = molecular target: T7, muCDH19(44-247)::huCDH19(250-364)::muCDH19(363-770) with Flag tag (construct F, Hu EC3) (human/mouse chimera); test: flow cytometry, transfected 293T cells
T7 construct: leader left out; the entry starts at residue 44; also called C137911
Text: as §3

[8] = molecular target: huCDH19(44-772) with Flag tag (construct A, Hu EC1-5) (human, UniProt Q9H159 44-772); test: flow cytometry, transfected 293T cells
Text: as §3

Row | Binder | binding result [1] | binding result [2] | binding result [3] | binding result [4] | binding result [5] | binding result [6] | binding result [7] | binding result [8]
1 | hu anti-<huCDH19> 4A2 (1-472)(Q17E,H47P) VH::huIgG1z + 4A2 (1-236)(N30Q,T102A) VL::huKLC (Ab ID 14026) (antibody, V domains shown, Engineered variant of 4A2; the entries already carry the changes; Bin 4) VH: QVQLQESGPGLVKPSETLSLTCTVSGGSISSSGYYWSWIRQPPGKGLEWIGYIYYTGSAYYNPSLKSRVTISVDTSKNQFSLKLSSVTAADTAVYYCARDGSSGWYFQYWGQGTLVTVSS VL: EIVLTQSPGTLSLSPGERATLSCRASRQISSSYLAWYQQKPGQAPRLLIYGPSSRATGIPDRFSGSGSGTDFTLTISRLEPEDFAVYYCQQYGSSFTFGPGTKVDIKR | – | – | – | – | – | binds | binds | binds
2 | hu anti-<huCDH19> 4B10 (1-471)(R17G) VH::huIgG1z + 4B10 (1-236)(H45Q,A90T) VL::huKLC (Ab ID 14054) (antibody, V domains shown, Engineered variant of 4B10; the entries already carry the changes; Bin 4) VH: QVQLVESGGGVVQPGGSLRLSCAASGFTFSSYDMHWVRQAPGKGLEWVAVISYDGTNEYYADSVKGRFTISRDTSKNTLYLQMNSLRAEDTAVYYCARERYFDWSFDYWGQGTLVSVSS VL: EIVLTQSPGTLSLSPGERATLSCRASQSVSNTYLAWYQQRPGQAPRLLIYGASSRATGIPDRFSGSGSGTDFTLTISSLEPEDFAVYYCQQYSNSWTFGQGTKVEIKR | – | – | – | – | – | binds | binds | binds

Continued, values first:

Row | binding result [1] | binding result [2] | binding result [3] | binding result [4] | binding result [5] | binding result [6] | binding result [7] | binding result [8] | Binder
3 | no binding (tested: 5 ug/ml) | binds | no binding (tested: 5 ug/ml) | no binding (tested: 5 ug/ml) | – | – | – | – | hu anti-<huCDH19> 17H8.2 (Ab ID 13874) (antibody, human IgG1, kappa, V domains shown, huIgG1z / huKLC; Bin 3; also called 23B6; 28D10) VH: QVQLQESGPGLVKPSETLSLTCTVSGGSINSYYWSWIRQPPGKGLEWIGYIYYIGSTNYNPSLKSRVTISVDTSKNQFSLKLSSVTAADTALYYCARDSRYRSGWYDAFDIWGQGTMVTVSS VL: DIVLTQSPGTLSLSPGERATLSCRASQSVAGSYLAWYQQKPGQAPRLLISGASSRATGIPDRFSGSGSGTDFTLTISRLEPEDFAVYYCQQYGKSPITFGQGTRLEMKG
4 | no binding (tested: 5 ug/ml) | binds | no binding (tested: 5 ug/ml) | no binding (tested: 5 ug/ml) | no binding (tested: 5 ug/ml) | – | – | – | hu anti-<huCDH19> 26F12.1 (Ab ID 13881) (antibody, human IgG1, lambda, V domains shown, huIgG1z / huLLC-C2; Bin 2; also called 27B3) VH: QVQLVQSGAEVKKPGASVKVSCKASRYTFTNYYMSWVRQAPGQGLEWMGIINPSGGDSTYAQKFQGRLTMTGDTSTSTVYMELSSLRSEDTAVYYCARGGIQLWLHFDYWGQGTLVTVSS VL: not shown
